For the experiment, the target named is T1, Recombinant Human ErbB2/Fc Chimera (R&D Systems) (human, UniProt P04626 23-652).
T1 construct: Bought reagent, immobilised by amine coupling on a GLM sensor chip (about 3000 RU); also called HER2; not shown: Fc part (and any linker or tag) of the bought chimera; not described
Briefly: SPR (ProteOn XPR36), ErbB2/Fc immobilised on GLM chip, conjugate as analyte, 1:1 Langmuir fit.

No end group written: not given here.

B1: pe-PEG20 (HER2-binding peptide of SEQ ID NO 3 modified with ICG and bound to monomaleimide linear PEG ME-200MA, MW 20000) (peptide)
peptide: MARSGLGGKGSC
modifications: not fully specified (residue 12); also: labelled with ICG-Sulfo-OSu, position not given here
notes: Tested as the PEG/ICG conjugate; also called pe−PEG20
With B1, the binding result was “binds”.

B2: pe-PEG40 (HER2-binding peptide of SEQ ID NO 3 modified with ICG and bound to monomaleimide linear PEG ME-400MA, MW 40000) (peptide)
peptide: MARSGLGGKGSC
modifications: not fully specified (residue 12); also: labelled with ICG-Sulfo-OSu, position not given here
notes: Tested as the PEG/ICG conjugate; also called pe−PEG40
Regarding B2, the binding result is reported as “binds”.

The record behind these values is patent publication JP2014185312A (dated 2014).
